Source: patent US20250186614A1, “COMPACT DRUG RESPONSIVE DOMAINS FOR REGULATION OF FUNCTION/ABUNDANCE AND DELIVERY OF POLYPEPTIDE PAYLOADS” (OBSIDIAN THERAPEUTICS, INC., priority 2022, published 2025)
Positions count from the first letter of the chain named. Names and notes keep the numbering of the source. Read-outs that look alike come from different tables or passages of the source.

B1: FKBP-232 (protein)
chain: HCPIKSRKGDVLHAHYTGKLEDMTEFDSSLPRNQPFVFSLGTGERIKGWDQGLLGMCEGEKRKLVIPSELGYGERGWPPKIPGGATLVFEVELLKIER
modifications: Description of sequence: Construct Name: FKBP-232; Mutation(s): Q72R Q84E A117W V85R DRD G63M M54A
B2: FKBP-237 (protein)
chain: B1 chain with A14M, M23G, G73N
modifications: Description of sequence: Construct Name: FKBP-237; Mutation(s): Q72R Q84E A117W V85R DRD G113N
B3: FKBP-239 (protein)
chain: B1 chain with A14M, E21Y, M23G, R45V
modifications: Description of sequence: Construct Name: FKBP-239; Mutation(s): Q72R Q84E A117W DRD E61Y
B4: FKBP-165 (protein)
chain: B1 chain with M23G, P79V
modifications: Description of sequence: Construct Name: FKBP-165; Mutation(s): Q72R Q84E A117W DRD M54A P119V V85R
B5: FKBP-238 (protein)
chain: B1 chain with M23G, G73N
modifications: Description of sequence: Construct Name: FKBP-238; Mutation(s): Q72R Q84E A117W V85R DRD G113N M54A
B6: FKBP-236 (protein)
chain: B1 chain with A14M, M23G, R45V, G73N
modifications: Description of sequence: Construct Name: FKBP-236; Mutation(s): Q72R Q84E A117W DRD G113N
B7: FKBP-233: FKBP13 DRD-AcGFP construct of Table 10 (protein)
chain: B1 chain with A14M, M23G, R45V, D50T
modifications: Description of sequence: Construct Name: FKBP-233; Mutation(s): Q72R Q84E A117W DRD D90T
B8: FKBP-234 (protein)
chain: B1 chain with A14M, M23G, D50T
modifications: Description of sequence: Construct Name: FKBP-234; Mutation(s): Q72R Q84E A117W V85R DRD D90T
B9: FKBP-240: FKBP13 DRD-AcGFP construct of Table 10 (protein)
chain: B1 chain with A14M, E21Y, M23G
modifications: Description of sequence: Construct Name: FKBP-240; Mutation(s): Q72R Q84E A117W V85R DRD E61Y
B10: FKBP-235 (protein)
chain: B1 chain with M23G, D50T
modifications: Description of sequence: Construct Name: FKBP-235; Mutation(s): Q72R Q84E A117W V85R DRD D90T M54A

Test: Example 4: dose response of FKBP constructs 160-255, Ec50, Ec90 and fold change (raw and normalized to mCherry)
Type: cell-based
Settings: for FC (fold change): fold change during initial analysis
Experimental: Additional experiments were performed for constructs FKBP-160-292.

[1] = FKBP constructs 160-255, not normalized, read-out: EC90
[2] = normalized to mCherry, read-out: EC90 (Norm)

Molecule | EC90 [1] | FC (fold change) | EC90 [2]
B1 | 938 nM | 35.0 | 1090 nM
B2 | 550 nM | 24.1 | 484 nM
B3 | 223 nM | 31.1 | 243 nM
B4 | 970 nM | 47.6 | 984 nM
B5 | 846 nM | 26.8 | 863 nM
B6 | 1810 nM | 39.1 | 1960 nM
B7 | 272 nM | 47.2 | 335 nM
B8 | 8760 nM | 23.5 | 12100 nM
B9 | 111 nM | 43.7 | 111 nM
B10 | 9980 nM | 23.5 | 11100 nM
